Source: paper PMC4073121

What was measured:
[1] = target: bfloGFPa1, green fluorescent protein of Amphioxus (Branchiostoma floridae) (Branchiostoma floridae); assay: SEC; size exclusion chromatography of the purified protein (Fig. S1); column and buffer not told
[2] = target: bfloGFPc1, green fluorescent protein of Amphioxus (Branchiostoma floridae) (Branchiostoma floridae); assay: as above

Substance	stoichiometry N [1]	stoichiometry N [2]
bfloGFPa1, green fluorescent protein of Amphioxus (Branchiostoma floridae) (natural protein)	2	
bfloGFPc1, green fluorescent protein of Amphioxus (Branchiostoma floridae) (natural protein)		2
